This is an account of results in the NTF2 design screens of Basanta et al. (2020).

This series can be described thus: protease stability score; higher = more stable; yeast display proteolysis, trypsin and chymotrypsin.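 Note: relative to predicted unfolded state with 0 unfolded-like and 1 meaning tenfold more protease.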
With “SEEEEEARKAFDDFYKSLETGDEEDLSKMIDPHVRIDINGREVHGREYAQTFWRDLIEKVKNLTLHLRDFRVIDGRLHSKMEIHQGEFHTEVNIHSKKINGRWLVQTFEFR”, the protease stability score was 1.84.

The sequence “DEEEKIARELSRLLAEIIETGDEDILLRMVDPHARFIINGKTIIGRETMWELWRRHVEKLGVSRIISRLRRIHVIDGRVHVHIEETFNGRTQEVRVDYMKIDGVWLIHEISIE” returned a protease stability score of 1.35. Regarding “DELTEDLKHAMTIFLHMLITGDEHWIHDLLDPNTRLEFEGREFVGREDAREEWRKISEEIRVHHVEMKDIHVFDGVIIVDGRMDGEVNGRRTHLNVFFVFHKVNGKWLMRQHSLR”, the protease stability score turned out to be 1.42. For “EEDEKTAEEMMHIWIKYLMTGNEERLYKLVDPNARIEFNGRTDHGRESFTKFLRELGIKHSHIEEIRWDVQGEKVILTLHGRLDVNGVDRSNEILIIAEKVNGRWRVESVHLHLR”, the protease stability score was 1.27. “REDERISQIAIEIVEHLIRTGDERVESELADPHMKLRINGVEIHGRERVHDWIHRFVTEFGIDRVEARVHDSHVVNGRIYNDTESHINGKNVKMRWIAIKYNGRWIQTMITFE”: the protease stability score is 1.3. In the case of “DEIDHRAREVAERILKSMLTGDFDTLRELMDPHVRVILSVNGRENHTVGREWFAHVVKEWIDRVDVHQIDVERVELQGEKVHMDTNLRIHYGDKSITRKTEIIIDVVDGRVHYVRFIIR” it was 2.52; in that of “SEEERETKLMDEIYQRLFKTGDEHKFLRLADPHAKFHFDGREDHGMHNSTRIWKKLNDILGLDNIRFHVRDWTVFDGVAHVDGKLVINGKEIEVKLHVVVVNGRVKSVSIEHE”, 0.924. “HELEEEAKRAADIWFENLLTGDFDSLRKLVDPHVRMNYNGQEYHGWEEVIRFWKEYLDKVKNLQFHRHHVDVQGEKTTIDTRHIINGRSSEVEIRLLVINGRIQSNEVHEN” gave a protease stability score of 1.14. Take “TELEKLLKEMSDIIHHAWRTGDEHLVRNLADPNVRFHTQIDGRNDERWGREEMEKALHDWLRHFGVKHIIDKSIELQGDKITIKGHVDVDGVKIDVRIFLIVVNGKLKTMKIEHD”: the protease stability score stood at 1.19.

Regarding “QDIDHQLERAVKEILETFITGDESLASHLFDPDVRVIQGDKHIHGREEVTKVFYEFVKRADHVEIRMREVESQGDIIDIETELILRIGDKEVRHRVRLIVVKYNGKWHIKSMEVD”, the protease stability score came to 2.72.

The sequence “TEDEEKSHEFVHRLSHSVMTGDWKDIKRLADPNMKSRVNGREIHGWDKTKRMLDEEEEQLGVSRFEFDLKRVDTQGDKLFIDMRMKVNGRTLEVTYHVEKVNGRWLVTEFHIL” gave a protease stability score of 0.555. In turn, “SEDHEDMDRMFDLLIKLLYTGDEESLEELFDPNTRIDVGDKVLHGRELAVKHVKDRLRRADHIEFHIKDRRAIDGRLEIDMELRIHVDGKDIIIRTKVHLEKVNGRWLIHHIKVH” registered a protease stability score of 1.38. Sequence “SDETKRLEEHLKHRFRSMVTGNEEDISRLMDPNAKLIVGDKEFHGREIVLKLLLRWAHEMRLRHEEVEEIHIIGDYVRINGILHMEVGDKSIEIHTVIIILKIDGRWRDKTEHYG” displayed a protease stability score of 0.654.

In the case of “SEEEHELKHWMKLFKHMIETGDWDSLVHYLDPHTRMHVGEFHHHGRHLMLKAFHDFLREMGAKHSDHKDSEITIQGDKVELTLDTRSQVGDKEFNVRIININRKVNGRWIIHSIIIEVE”, the protease stability score is 1.09. For the sequence “DEEEKHWTTLIEIHFKDLLTGDEDSNLHLADPDYRLRMHFDGRELIFIGREEIHKFWHETVHKFKNMRIEINDSDIQGDKFDVDIAIRIDGVEIRYRLIIILFNGRTHRQEVHNI”, the protease stability score turned out to be 1.3. In turn, “REENEMLKRAIKHILRVLETGDFEDLSKMFDPHARLFFNGVLFMGRENVEHHWERERERYKNLRLHFRHVNYHVQGDKVFVEYHVDVTVGDKKWEVHFHFIVIKINGQWYNEDLEIEIR” yielded a protease stability score of 1.66.

Sequence “DEDEENTRQAIDRIIRSWMTGDEKTMTELLDPRVRVEQGDKEFHGREDYTRWINEMRITHIDLRSIEKIDGRLHVHLEFDESVNGKRHRVDVELTIVKINGQWFLESVRIR” returned a protease stability score of 0.681. As to “DEKTEISEFALELFKESYDTGDEHTINRLADPHYRVVIGDKDLIGMEWLEHVIRHHKERVDHYRDVTVKDIKVIGNKVIADIRSHVHVDGQERDLDIDLVVFKINGRWRIKMIKID”, the protease stability score was 1.15. In turn, “TEDEKMAEDLLKLILEAMETGDERIFRHLVDPNVRVSQGEKQLHGREAVEEMLKHLRLHRVRIRDVHVVGDKIIVQGEIHGEIGDFRFESHIIVYIHKFNGQWRHKSIEIK” yielded a protease stability score of 1.42. The sequence “DEHEERLEHWAEVIIRSWITGDESLFRHLFDPHVRTEVNGVERHGRDEAVKMERLIREHLGVKHEEIKDYHVQGDKIHVDSRVDVNGVKINTRIHVLVVNGRIKEVRFEFD” came in with a protease stability score of 0.841. Turning to “SEEEEKRRKSAEDFMRSLVTGDEDDLSRLADPHVRLDINGKEHHGMEEFKRLLSEFWEEMGIKHVRIRRIDIQGNKAILHTEVDWNGRIHEVTIDVQTYNGRIKSVKVIIH”, the protease stability score is 1.24.

For the sequence “DERKEDLDRALEEFLRSVETGDEELNERLADPNVKLVIDGVKYHGMEFIVKQLDEWRIHDMRIRRIRNVGEKVYVDLSVDGNFNGRRYRTEVKIVFTKINGRWLLETHIVD”, the protease stability score came to 1.87. Take “DEHDKLLKELSERMFELWETGDEDRLHKLADPHALSRVGEFSIHGMRNHMEWLREWLRRVKNATIHVRDVDLQGNKSRFDHELIIDGVELKVIDNIVLVNGRIKEIRIEIN”: the protease stability score worked out at 0.027. For the sequence “NEEDEFMEVAVELMERTLKTGDERLLSELVDPNARIEFNGREWHGRKFLETLWRELTKKFPNMKVMFKIEYINSFEGHIEIEGILESNFDGRVESRRVHYNVSKINGRWIIEEIEIQ”, the protease stability score turned out to be 1.35. The sequence “SEDEEESRHAYQKLVRDLETGDEKKTEDNVDPNVRLEQGDKTLHGRERFVHWYSRLGAKHFHIHSFEAQGDKIHIDGTINVNGVTHRVEYISLKVNGRWLMHQVIIR” returned a protease stability score of 0.662.

“SEEEEYVTKYTRHWLHSHVTGDEDYLRRYADPHVRVDINGREVHGRDEAAHFIERVLRHIREEHLDDRDFTVINGKSILHGELKISINGQEWRVNFDIIIVVVNGRFKREEVRVK” gave a protease stability score of 0.858. For “DEDRREVQRFIESVVHAIRTGDWRRILELADPNTRLDFDGKVFHGMHVSVKRIIEELEKVKGLRIKDMTTDSVNIYNGVVELDGTLDLEIGDYESHVSAKFVLLKFNGRWFIHEESTR” the value was 1.59; for “SEEEKAFKESYDVWIEALKTGNEEESREMFDPTPLQVVNGQELHGRDHIEQEVSEWRIDHVDIDELRLQGDKAILHGRVSGHINGKRVKFEEKLVMHKIDGRWFIRSVIVR”, 0.333; for “SEEDQLLHHQMETWRHMIHTGDEELLERFLDPTVRIEYDGQEHHGRETAAHLFRELAEKLGIEFEDLEIHETEIQGDKIRVDTILYVDINGRKLVFRTHTVWEKINGRWILREIKIE”, 0.043.

In turn, “SREEKEIKEIWELLVRSWLTGDEETLTHLLDPNARSVINGREYHGRETIAHELTRHLYELRIKDIELHHVDIIGDKVKIDSRVEYHFNGRETELKVEIVALKINGRWRLKDNIIK” came in with a protease stability score of 1.47. In the case of “SEHDEELERWARLILHLLYTGNEEELRKMMDPDVRLNVNGRELHGWKKAMELWRIIKEHLRIHHVDIHDIDVFDGRNHVDIRINTNINGQEYIYKTEIIIVIIDGRMRSHEVRVK” it was 1.74. Sequence “RSEEHEAKDKVREWVEAYLTGDEDHLRRLHDPDMRFNWNGVEIHGMEEFSHWMHKYMYELGVDHTHVTVRHIEFYGDKIHADTKLFIRQGDKEREHHSQVHIEVINGQFKRLEIREH” had a protease stability score of 0.829. The sequence “SELEHEMVEFFRLLVHAWRTGNEELAHRLIDPNVRLDVNGRHFHGWEEFFRFYKEIRLKDADLDSFRIIDGRVELDGTMHMEQGDKSRSVESHVLLEKIDGRWIVRSVRFH” yielded a protease stability score of 1.44. In the case of “DEWREHMEKLADDFSHAMLTGNEESMDKFLDPHTRSIVNGVERHGREAFRIWINQIDHIRDVEFRHVDTQGNKIRSHTRFHGEVNGRRYIVEIEVILHVIDGRVKSVEIRNL” it was 1.38; in that of “DEHTKFLEKLLRDWMESVLTGDEHLIKRYADPNVRLDFNGQQFHGRDSMVHLLKEWRIKHFKLDSFFAIDGVTFVDGESRGEVNGQETENRLHVEIFVVNGKVTHVKIRIL”, 1.68; in that of “SEDHEVLRVALELMLHFLTTGDWHLLRKLMDPEVRIRVGEKHIHGMDLILSEWVRVIRELGVKHYHIEVKRDHHQGDKIHLDGTLHIDVNGRQIHIRTEIIAHKVDGKWIHESQVIN”, 0.988.

“DEIEEIAREIAKELHHLILTGDEDRLNELMDPNVKFESIVNGRRIESIGRENVKEVLRRLLEKLGLDRFSFIRRDIKYFDGVIHIFGQLEIDGVRHETEIIIFIVNGKVKSIRIRIQ” had a protease stability score of 1.14. “DEDTHWIRDALRRYEEMLRTGDEDLFRRLFDPHVRVEINGQENHGMESILKLYRDLVEHLGIKHVQEVELEDVNMIDGVIILHIRVRVRFDGKHETIRMNVVAYKVNGQWRLHELKEG” returned a protease stability score of 1.47. The sequence “DTVTEMDRHIFEHLLHLWKTGDWKRMTELFDPHARSVFNGRELHGRKSMQEAIEIIVRRADHIELHIRSLDVVDGQIDLDGELILIVGDKKIVHETHIHIHVYNGQVTELSFQIV” yielded a protease stability score of 0.585. “DEDHEVFKRINDLFHESLETGDERVLERLMDPNTRIEYGDKRVHGREELLRHMREMGIDHFNVEDTTVINGVAMLDVSIVVNGKVFKLEFYVNKVNGQWHLEHVEIREI” displayed a protease stability score of 0.661. “DDEEEIFKKAIEDFIRWERTGDWRQLVENLDPNTRVDVNGVYIHGRERIAEWIKHHIERVKNVKHHKHDEKVQGDKLHLDGVIIIDGVRFDVHLIIVVINGQYKHHEVRIR” displayed a protease stability score of 1.17. Turning to “SESQEVLEMAIRIWRHTVKTGDEREIAELMDPHVRIEVGDKEFIGRELVSHWFLRFSEHMRIHDIEIKRYHVVGNKAHIHTVVDGEVDGKRDYTEVELIVEKVDGRWLIRSMKIR”, the protease stability score came out at 2.49. “DERSEEVRRLIKNLVDFFHTGDWRLIQDLADPNVRTDVNGVEHHGREEVTKMLEELVRRFRNVRLHIRDHHIQGEWVIVILEFHVGDKSFELHMFALKINGRWTLTSIEVR” gave a protease stability score of 2.37. “DEQEELSQLLAEIVIELTKTGDEHTLERLMDPHVRANINGVELHGRKKVREFLEEWLRRVKNVRLHIDDRTVQGEKIIVDGTWNVGDKSFRIEFIVIIINGRHTSFNVLDI” came in with a protease stability score of 1.51. For “DDREKFWKELAKEWFKSLITGDEDSLRKLLDPDVRTIVGDWHIHGMEEVLKFWLELRISDHDSKRIIVINGVNLNDIRSNGNVNGVERETRVELIIEVVDGRVRRVEFRMK” the value was 2.01; for “SEDEEHARKLVEELLHIMITGDFHRIRELADPHARIVVGDKVFHGREMMFRFSRELRVHDHRLRHEEYINGVVHIEGHVDGEINGRRHRTEVRIHIVVIDGRVKTMEIRWD”, 1.35; for “GENEQLIEEAVKMFMDIHHTGDWRDVHHLLDPHMRLDVNGVDYHGRDLWVRIAKEISEHARTEVRIRHLEIQGDKVIVHGQIILRIGDKTHVIDTRHIIIKINGRWKLHSVDIH”, 1.32.
